# Test results taken from publication PMC5692578.
# Biological target: Mcm2-7 hexamer (S. cerevisiae) (UniProt P29469)
# Test: cryo-EM structure
substance,measurement,value
"Mcm2-7 hexamer, P29469;P24279;P30665;P29496;P53091;P38132",stoichiometry N,2 hexamers
